Publication PMC5735676, “Leishmania braziliensis SCD6 and RBP42 proteins, two factors with RNA binding capacity”

Columns and labels:
rLbRBP42 [1] = molecular target: T1, rLbRBP42 (Leishmania braziliensis, UniProt A4HIP3 1-338); experiment: EMSA; 6 mM Mg2+, heparin; 3 pM protein, 12.5 nM RNA; EMSA: 10 mM HEPES pH 7.3, 20 mM KCl, 6 mM MgCl2, 1 mM DTT, 0.05% NP-40, 1 ug/ul heparin, 40 U RNaseOUT, room temperature 20 min, 6% native PAGE 0.5x TBE; pull-down at room temperature on His-tag Dynabeads, 1x pull-down buffer (composition not stated); conditions: protein: recombinant; tags: His tag (nickel column); label: 5' digoxigenin
T1 sequence: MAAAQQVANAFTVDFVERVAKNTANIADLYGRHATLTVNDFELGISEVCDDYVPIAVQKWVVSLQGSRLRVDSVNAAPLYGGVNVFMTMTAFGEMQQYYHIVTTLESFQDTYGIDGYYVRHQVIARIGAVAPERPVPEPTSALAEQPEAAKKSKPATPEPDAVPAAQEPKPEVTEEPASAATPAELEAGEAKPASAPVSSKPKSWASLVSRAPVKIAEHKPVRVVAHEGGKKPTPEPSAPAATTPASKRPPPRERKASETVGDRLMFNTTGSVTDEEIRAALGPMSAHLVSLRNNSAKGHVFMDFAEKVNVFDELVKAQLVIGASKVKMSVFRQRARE

rLbSCD6 [2] = molecular target: T2, rLbSCD6 (Leishmania braziliensis, UniProt A4HEG4 1-294); experiment: EMSA; 6 mM Mg2+, heparin; 12.5 nM RNA; EMSA: 10 mM HEPES pH 7.3, 20 mM KCl, 6 mM MgCl2, 1 mM DTT, 0.05% NP-40, 1 ug/ul heparin, 40 U RNaseOUT, room temperature 20 min, 6% native PAGE 0.5x TBE; pull-down at room temperature on His-tag Dynabeads, 1x pull-down buffer (composition not stated); conditions: protein: recombinant; tags: His tag (nickel column); label: 5' digoxigenin
T2 sequence: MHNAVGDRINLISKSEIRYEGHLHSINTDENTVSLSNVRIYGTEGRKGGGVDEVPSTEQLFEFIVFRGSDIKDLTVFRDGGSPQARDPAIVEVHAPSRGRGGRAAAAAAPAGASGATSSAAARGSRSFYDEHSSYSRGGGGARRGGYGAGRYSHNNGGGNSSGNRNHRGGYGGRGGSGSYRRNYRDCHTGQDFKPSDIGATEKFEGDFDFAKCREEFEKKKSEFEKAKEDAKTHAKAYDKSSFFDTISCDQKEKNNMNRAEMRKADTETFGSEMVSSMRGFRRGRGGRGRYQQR

rLbRBP42 [3] = molecular target: T1, rLbRBP42; experiment: competition; vs 12.5 nM labeled N2; decrease of complex only at 4-fold cold RNA; EMSA: 10 mM HEPES pH 7.3, 20 mM KCl, 6 mM MgCl2, 1 mM DTT, 0.05% NP-40, 1 ug/ul heparin, 40 U RNaseOUT, room temperature 20 min, 6% native PAGE 0.5x TBE; pull-down at room temperature on His-tag Dynabeads, 1x pull-down buffer (composition not stated); conditions: protein: recombinant; tags: His tag (nickel column)
rLbSCD6 [4] = molecular target: T2, rLbSCD6; experiment: competition; vs 12.5 nM labeled N2; completely competed at 1-fold cold RNA; EMSA: 10 mM HEPES pH 7.3, 20 mM KCl, 6 mM MgCl2, 1 mM DTT, 0.05% NP-40, 1 ug/ul heparin, 40 U RNaseOUT, room temperature 20 min, 6% native PAGE 0.5x TBE; pull-down at room temperature on His-tag Dynabeads, 1x pull-down buffer (composition not stated); conditions: protein: recombinant; tags: His tag (nickel column)
rLbSCD6 [5] = molecular target: T2, rLbSCD6; experiment: competition; vs 12.5 nM labeled N2; up to 8-fold (100 nM) cold RNA; EMSA: 10 mM HEPES pH 7.3, 20 mM KCl, 6 mM MgCl2, 1 mM DTT, 0.05% NP-40, 1 ug/ul heparin, 40 U RNaseOUT, room temperature 20 min, 6% native PAGE 0.5x TBE; pull-down at room temperature on His-tag Dynabeads, 1x pull-down buffer (composition not stated); conditions: protein: recombinant; tags: His tag (nickel column)
rLbRBP42 [6] = molecular target: T1, rLbRBP42; experiment: as above; conditions: protein: recombinant; tags: His tag (nickel column)

B1: 3' UTR-II.1 motif (ssRNA)
RNA: AUGUCUUUUAUUUUUUUGUGUGUGUUUUAUAUUUUUCUCCUUUCGUACUAA
rLbRBP42 [1]
  binding result: binds
rLbSCD6 [2]
  binding result: binds

B2: 3' UTR-II.1 motif, cold (ssRNA)
RNA: B1 RNA
rLbRBP42 [3]
  binding result: binds
rLbSCD6 [4]
  binding result: binds

B3: 3' UTR-II.1 antisense (ssRNA)
RNA: UACAGAAAAUAAAAAAACACACACAAAAUAUAAAAAGAGGAAAGCAUGAUU
rLbSCD6 [5]
  binding result: no binding
rLbRBP42 [6]
  binding result: no binding
